In publication PMC4625125 one finds Kd data, which are given here for one substance.

The series concerns ScbR2. Nature of the series: EMSA. To be noted: 'nearly 1 uM'; exact value in figure; not stated; modified EMSA as previously described (ref 23). (A gel shift assay detects complexes by their altered migration in electrophoresis.)

On to PkasO1, for which the Kd – broadly, the concentration at which binding is half-saturated – worked out at 1000 nM.
